B1: LysAEc: Enzyme candidate for BDO biosynthetic pathway step A5, SEQ ID NO. 66 (protein, listed as Escherichia coli)
chain: MPHSLFSTDTDLTAENLLRLPAEFGCPVWVYDAQIIRRQIAALKQFDVVRFAQKACSNIHILRLMREQGVKVDSVSLGEIERALAAGYNPQTHPDDIVFTADVIDQATLERVSELQIPVNAGSVDMLDQLGQVSPGHRVWLRVNPGFGHGHSQKTNTGGENSKHGIWYTDLPAALDVIQRHHLQLVGIHMHIGSGVDYAHLEQVCGAMVRQVIEFGQDLQAISAGGGLSVPYQQGEEAVDTEHYYGLWNAAREQIARHLGHPVKLEIEPGRFLVAQSGVLITQVRSVKQMGSRHFVLVDAGFNDLMRPAMYGSYHHISALAADGRSLEHAPTVETVVAGPLCESGDVFTQQEGGNVETRALPEVKAGDYLVLHDTGAYGASMSSNYNSRPLLPEVLFDNGQARLIRRRQTIEELLALELL
B2: GadBEc: Enzyme candidate for BDO biosynthetic pathway step A5, SEQ ID NO. 64 (protein, listed as Escherichia coli)
chain: MDKKQVTDLRSELLDSRFGAKSISTIAESKRFPLHEMRDDVAFQIINDELYLDGNARQNLATFCQTWDDENVHKLMDLSINKNWIDKEEYPQSAAIDLRCVNMVADLWHAPAPKNGQAVGTNTIGSSEACMLGGMAMKWRWRKRMEAAGKPTDKPNLVCGPVQICWHKFARYWDVELREIPMRPGQLFMDPKRMIEACDENTIGVVPTFGVTYTGNYEFPQPLHDALDKFQADTGIDIDMHIDAASGGFLAPFVAPDIVWDFRLPRVKSISASGHKFGLAPLGCGWVIWRDEEALPQELVFNVDYLGGQIGTFAINFSRPAGQVIAQYYEFLRLGREGYTKVQNASYQVAAYLADEIAKLGPYEFICTGRPDEGIPAVCFKLKDGEDPGYTLYDLSERLRLRGWQVPAFTLGGEATDIVVMRIMCRRGFEMDFAELLLEDYKASLKYLSDHPKLQGIAQQNSFKHT
B3: MenDEc: Enzyme candidate for BDO biosynthetic pathway step A5, SEQ ID NO. 65 (protein, listed as Escherichia coli)
chain: MSVSAFNRRWAAVILEALTRHGVRHICIAPGSRSTPLTLAAAENSAFIHHTHFDERGLGHLALGLAKVSKQPVAVIVTSGTAVANLYPALIEAGLTGEKLILLTADRPPELIDCGANQAIRQPGMFASHPTHSISLPRPTQDIPARWLVSTIDHALGTLHAGGVHINCPFAEPLYGEMDDTGLSWQQRLGDWWQDDKPWLREAPRLESEKQRDWFFWRQKRGVVVAGRMSAEEGKKVALWAQTLGWPLIGDVLSQTGQPLPCADLWLGNAKATSELQQAQIVVQLGSSLTGKRLLQWQASCEPEEYWIVDDIEGRLDPAHHRGRRLIANIADWLELHPAEKRQPWCVEIPRLAEQAMQAVIARRDAFGEAQLAHRICDYLPEQGQLFVGNSLVVRLIDALSQLPAGYPVYSNRGASGIDGLLSTAAGVQRASGKPTLAIVGDLSALYDLNALALLRQVSAPLVLIVVNNNGGQIFSLLPTPQSERERFYLMPQNVHFEHAAAMFELKYHRPQNWQELETAFADAWRTPTTTVIEMVVNDTDGAQTLQQLLAQVSHL
B4: KgdMs: Enzyme candidate for BDO biosynthetic pathway step A5, SEQ ID NO. 69 (protein, listed as Mycobacterium smegmatis)
chain: MSSSPSPFGQNEWLVEEMYRKFRDDPSSVDPSWHEFLVDYSPEPTTDSASNGRTTTAAPVTPPTPAPAPAPEPKAAPKPAAKTEAKPAKPAKSATPAKGDESQILRGAAAAVVKNMNASLEVPTATSVRAIPAKLMIDNRVVINNHLKRTRGGKISFTHLLGYAIVQAVKKFPNMNRHFAVVDGKPTAITPAHTNLGLAIDLQGKDGNRSLVVAAIKRCETMRFGQFIAAYEDIVRRARDGKLTAEDFSGVTISLTNPGTLGTVHSVPRLMQGQGAIIGAGAMEYPAEFQGASEERIADLGIGKLITLTSTYDHRIIQGAESGDFLRTIHQLLLDDDFFDEIFRELGIPYEPVRWRTDNPDSIEDKNARVIELIAAYRNRGHLMADIDPLRLDNTRFRSHPDLDVNSHGLTLWDLDREFKVDGFAGVQRKKLRDILSVLRDAYCRHVGVEYTHILEPEQQRWIQERVETKHDKPTVAEQKYILSKLNAAEAFETFLQTKYVGQKRFSLEGAETVIPMMDAVIDQCAEHGLDEVVIAMPHRGRLNVLANIVGKPYSQIFSEFEGNLNPSQAHGSGDVKYHLGATGTYIQMFGDNDIEVSLTANPSHLEAVDPVLEGLVRAKQDLLDTGEEGSDNRFSVVPLMLHGDAAFAGQGVVAETLNLALLRGYRTGGTIHIVVNNQIGFTTAPTDSRSSEYCTDVAKMIGAPIFHVNGDDPEACAWVARLAVDFRQAFKKDVVIDMLCYRRRGHNEGDDPSMTQPYMYDVIDTKRGSRKAYTEALIGRGDISMKEAEDALRDYQGQLERVFNEVRELEKHEIEPSESVEADQQIPSKLATAVDKAMLQRIGDAHLALPEGFTVHPRVRPVLEKRREMAYEGRIDWAFAELLALGSLIAEGKLVRLSGQDTQRGTFTQRHAVIVDRKTGEEFTPLQLLATNPDGTPTGGKFLVYNSALSEFAAVGFEYGYSVGNPDAMVLWEAQFGDFVNGAQSIIDEFISSGEAKWGQLSDVVLLLPHGHEGQGPDHTSGRIERFLQLWAEGSMTIAMPSTPANYFHLLRRHGKDGIQRPLIVFTPKSMLRNKAAVSDIRDFTESKFRSVLEEPMYTDGEGDRNKVTRLLLTSGKIYYELAARKAKENREDVAIVRIEQLAPLPRRRLAETLDRYPNVKEKFWVQEEPANQGAWPSFGLTLPEILPDHFTGLKRISRRAMSAPSSGSSKVHAVEQQEILDTAFG
B5: YiaQEc: Enzyme candidate for BDO biosynthetic pathway step A5, SEQ ID NO. 67 (protein, listed as Escherichia coli)
chain: MSRPLLQLALDHSSLEAAQRDVTLLKDSVDIVEAGTILCLNEGLGAVKALREQCPDKIIVADWKVADAGETLAQQAFGAGANWMTIICAAPLATVEKGHAMAQRCGGEIQIELFGNWTLDDARDWHRIGVRQAIYHRGRDAQASGQQWGEADLARMKALSDIGLELSITGGITPADLPLFKDIRVKAFIAGRALAGAANPAQVAGDFHAQIDAIWGGARA
B6: SpeFEc: Enzyme candidate for BDO biosynthetic pathway step A5, SEQ ID NO. 63 (protein, listed as Escherichia coli)
chain: MSKLKIAVSDSCPDCFTTQRECIYINESRNIDVAAIVLSLNDVTCGKLDEIDATGYGIPVFIATENQERVPAEYLPRISGVFENCESRREFYGRQLETAASHYETQLRPPFFRALVDYVNQGNSAFDCPGHQGGEFFRRHPAGNQFVEYFGEALFRADLCNADVAMGDLLIHEGAPCIAQQHAAKVFNADKTYFVLNGTSSSNKVVLNALLTPGDLVLFDRNNHKSNHHGALLQAGATPVYLETARNPYGFIGGIDAHCFEESYLRELIAEVAPQRAKEARPFRLAVIQLGTYDGTIYNARQVVDKIGHLCDYILFDSAWVGYEQFIPMMADCSPLLLDLNENDPGILVTQSVHKQQAGFSQTSQIHKKDSHIKGQQRYVPHKRMNNAFMMHASTSPFYPLFAALNINAKMHEGVSGRNMWMDCVVNGINARKLILDNCQHIRPFVPELVDGKPWQSYETAQIAVDLRFFQFVPGEHWHSFEGYAENQYFVDPCKLLLTTPGIDARNGEYEAFGVPATILANFLRENGVVPEKCDLNSILFLLTPAEDMAKLQQLVALLVRFEKLLESDAPLAEVLPSIYKQHEERYAGYTLRQLCQEMHDLYARHNVKQLQKEMFRKEHFPRVSMNPQEANYAYLRGEVELVRLPDAEGRIAAEGALPYPPGVLCVVPGEIWGGAVLRYFSALEEGINLLPGFAPELQGVYIEEHDGRKQVWCYVIKPRDAQSTLLKGEKL
B7: UlaDEc: Enzyme candidate for BDO biosynthetic pathway step A5, SEQ ID NO. 68 (protein, listed as Escherichia coli)
chain: MSLPMLQVALDNQTMDSAYETTRLIAEEVDIIEVGTILCVGEGVRAVRDLKALYPHKIVLADAKIADAGKILSRMCFEANADWVTVICCADINTAKGALDVAKEFNGDVQIELTGYWTWEQAQQWRDAGIGQVVYHRSRDAQAAGVAWGEADITAIKRLSDMGFKVTVTGGLALEDLPLFKGIPIHVFIAGRSIRDAASPVEAARQFKRSIAELWG

This test relates to 5-hydroxy-2-oxopentanoate. Briefly: Enzyme assay, decarboxylase (step A5), aldehyde dehydrogenase linked reaction. The format is biochemical. On the set-up: key: +: measureable activity detected in the assay; −: no measurable activity detected in the assay. As to conditions: BDO biosynthetic pathway step A5. As to the method: Enzyme expression and crude lysate preparation. The enzymatic activity of each candidate enzyme is evaluated, first in E. coli and subsequently in C. glutamicum. It will be apparent to one of skill in the art that the expression and lysate preparations may need to be modified depending on the host cell and recombinant gene of interest.
E. coli: E. coli strains transformed with expression clones, for example, pUC18 or MB4124 based clones having a medium strong constitutive promoter regulating the recombinant gene of interest, are grown aerobically in LB medium (Difco) containing the appropriate antibiotic(s). At an OD600 of 0.5, IPTG is added to a final concentration of 0.25 mM. The cultures are grown to a final OD600 of 1.5 at which time the cells are collected and harvested by centrifugation. Cell pellets are resuspended in BugBuster (Novagen) reagent containing benzonase and lysozyme. Alternatively, E. coli strains transformed with expression clones, are grown overnight aerobically at 37° C. in BHI containing the appropriate antibiotic(s). 300 μL of fresh overnight culture is used to inoculate 2.7 mL BHI containing 0.25 mM IPTG and the appropriate antibiotic. The cultures are grown aerobically for 4-5 hours at 37° C. at which time the cells are collected and harvested by centrifugation. Cell pellets are frozen at −80° C. for at least 15 minutes, then thawed and resuspended in BugBuster (Novagen) reagent. Lysis and lysate collection are performed according to the manufacturer's instructions and, for example, may involve use of a sonicator and/or French press. Cleared lysates are stored on ice until enzyme assays are performed.
C. glutamicum: C. glutamicum strains transformed with MB4124 expression clones containing the recombinant gene of interest are grown aerobically in BHI broth supplemented with the proper antibiotic(s). At an OD600 of 0.5, IPTG is added to a final concentration of 0.25 mM. The cultures are grown to a final OD600 of 1.5 at which time the cells are collected and harvested by centrifugation. The pellet is washed once in one volume of water and resuspended in lysis buffer (1.0 ml 1.0 M HEPES buffer, pH 7.5, 0.5 ml 1M KOH, 10 μl 0.5M EDTA, protease inhibitor cocktail, water to 5 ml; the final pH will vary depending on the individual enzyme being tested) and one volume of 0.1 mm acid washed glass beads. The mixture is repeatedly alternately vortexed and held on ice for 15 seconds, eight times. After centrifugation for 5 min at 4,000 rpm, the supernatant lysate is removed and respun for 20 min at 10,000 rpm. Alternatively, C. glutamicum strains transformed with MB4124 expression clones containing the recombinant gene of interest are grown aerobically overnight in BHI broth supplemented with the proper antibiotic(s). Five mL of fresh overnight culture is used to inoculate 200 mL BHI containing 0.25 mM IPTG and the appropriate antibiotic. The cultures are grown aerobically at 30° C. for 5-7 hours at which time the cells are collected and harvested by centrifugation at 4° C. The pellet is resuspended in 15 mL ice cold 39 mM KH2PO4, 61 mM K2HPO4, 0.5 M KCl and lysed using a BioSpec BeadBeater and following the manufacturer's instructions. The lysate is centrifuged at 16,000 RPM at 4° C. for 30 minutes and the supernatant retained on ice as the extract.
Protein Assays. Protein concentrations in lysates are determined according to the methods of Bradford et al. (Anal. Biochem. 72:248-254 [1976]) or by the method of Smith et al. (Anal. Biochem. 150(1):76-85 [1985]) and lysates are assayed according to the methods below.
Enzyme Assays. Enzyme assays are performed on the cell lysates prepared above. The activity for each recombinant enzyme is compared to a lysate from a vector only control culture which is generated in a fashion identical to the recombinant enzyme lysate. […]
As for B1, the “Enzyme Assay” value is “−”.
With B2 the entry was “−”.
With B3 the entry was “−”; with B4, “−”; with B5, “−”.
With B6 the entry was “−”; with B7, “−”.

The record behind these values is US20110014669A1, “Production of 1,4 Butanediol in a Microorganism” (Microbia, Inc., priority 2009, published 2011).
